Measured values: PMC7367873, “Dissecting the sequence determinants for dephosphorylation by the catalytic subunits of phosphatases PP1 and PP2A” (Nature Communications, 2020)
Each block holds one molecule with its values, some of them ahead of it.

Assays:
[1] = tested on: GFP-14-3-3β and its binding proteins; assay: GFP-14-3-3β co-IP with LC-MS/MS label-free quantification, untreated versus PP1c-treated; set-up: species or system human; conditions: label-free quantification, 3 replicates each
[2] = tested on: GFP-14-3-3β; assay: GFP-14-3-3β co-IP with LC-MS/MS, untreated GFP-14-3-3β versus GFP control (14-3-3 interactome); format: binding, human; conditions: label-free quantification, 3 replicates each
[3] = GFP-14-3-3β co-IP LC-MS/MS, PP1 vs untreated, student's t-test
[4] = GFP-14-3-3β co-IP LC-MS/MS, untreated vs GFP, student's t-test

Difference (log2), PP1 vs untreated [1, 3]: -0.1595 log2
B1: DSG2 (protein, UniProt Q14126 50-1118, looked up)
Desmoglein-2: AWITAPVALREGEDLSKKNPIAKIHSDLAEERGLKITYKYTGKGITEPPFGIFVFNKDTGELNVTSILDREETPFFLLTGYALDARGNNVEKPLELRIKVLDINDNEPVFTQDVFVGSVEELSAAHTLVMKINATDADEPNTLNSKISYRIVSLEPAYPPVFYLNKDTGEIYTTSVTLDREEHSSYTLTVEARDGNGEVTDKPVKQAQVQIRILDVNDNIPVVENKVLEGMVEENQVNVEVTRIKVFDADEIGSDNWLANFTFASGNEGGYFHIETDAQTNEGIVTLIKEVDYEEMKNLDFSVIVANKAAFHKSIRSKYKPTPIPIKVKVKNVKEGIHFKSSVISIYVSESMDRSSKGQIIGNFQAFDEDTGLPAHARYVKLEDRDNWISVDSVTSEIKLAKLPDFESRYVQNGTYTVKIVAISEDYPRKTITGTVLINVEDINDNCPTLIEPVQTICHDAEYVNVTAEDLDGHPNSGPFSFSVIDKPPGMAEKWKIARQESTSVLLQQSEKKLGRSEIQFLISDNQGFSCPEKQVLTLTVCECLHGSGCREAQHDSYVGLGPAAIALMILAFLLLLLVPLLLLMCHCGKGAKGFTPIPGTIEMLHPWNNEGAPPEDKVVPSFLPVDQGGSLVGRNGVGGMAKEATMKGSSSASIVKGQHEMSEMDGRWEEHRSLLSGRATQFTGATGAIMTTETTKTARATGASRDMAGAQAAAVALNEEFLRNYFTDKAASYTEEDENHTAKDCLLVYSQEETESLNASIGCCSFIEGELDDRFLDDLGLKFKTLAEVCLGQKIDINKEIEQRQKPATETSMNTASHSLCEQTMVNSENTYSSGSSFPVPKSLQEANAEKVTQEIVTERSVSSRQAQKVATPLPDPMASRNVIATETSYVTGSTMPPTTVILGPSQPQSLIVTERVYAPASTLVDQPYANEGTVVVTERVIQPHGGGSNPLEGTQHLQDVPYVMVRERESFLAPSSGVQPTLAMPNIAVGQNVTVTERVLAPASTLQSSYQIPTENSMTARNTTVSGAGVPGPLPDFGLEESGHSNSTITTSSTRVTKHSTVQHSYS
Difference (log2), untreated vs GFP [2, 4]: -0.9434 log2

Difference (log2), PP1 vs untreated ([1]; log2 difference, pairwise comparison PP1 vs untreated): 1.729
B2: LSM12 (protein, UniProt Q3MHD2 2-195, looked up)
Protein LSM12: AAPPGEYFSVGSQVSCRTCQEQRLQGEVVAFDYQSKMLALKCPSSSGKPNHADILLINLQYVSEVEIINDRTETPPPLASLNVSKLASKARTEKEEKLSQAYAISAGVSLEGQQLFQTIHKTIKDCKWQEKNIVVMEEVVITPPYQVENCKGKEGSALSHVRKIVEKHFRDVESQKILQRSQAQQPQKEAALSS
Difference (log2), untreated vs GFP ([2]; log2 difference, pairwise comparison untreated vs GFP): 1.227

Difference (log2), PP1 vs untreated [1, 3]: -0.1579 log2
B3: SF3B2 (protein, UniProt Q13435 1-895, looked up)
Splicing factor 3B subunit 2: MATEHPEPPKAELQLPPPPPPGHYGAWAAQELQAKLAEIGAPIQGNREELVERLQSYTRQTGIVLNRPVLRGEDGDKAAPPPMSAQLPGIPMPPPPLGLPPLQPPPPPPPPPPGLGLGFPMAHPPNLGPPPPLRVGEPVALSEEERLKLAQQQAALLMQQEERAKQQGDHSLKEHELLEQQKRAAVLLEQERQQEIAKMGTPVPRPPQDMGQIGVRTPLGPRVAAPVGPVGPTPTVLPMGAPVPRPRGPPPPPGDENREMDDPSVGPKIPQALEKILQLKESRQEEMNSQQEEEEMETDARSSLGQSASETEEDTVSVSKKEKNRKRRNRKKKKKPQRVRGVSSESSGDREKDSTRSRGSDSPAADVEIEYVTEEPEIYEPNFIFFKRIFEAFKLTDDVKKEKEKEPEKLDKLENSAAPKKKGFEEEHKDSDDDSSDDEQEKKPEAPKLSKKKLRRMNRFTVAELKQLVARPDVVEMHDVTAQDPKLLVHLKATRNSVPVPRHWCFKRKYLQGKRGIEKPPFELPDFIKRTGIQEMREALQEKEEQKTMKSKMREKVRPKMGKIDIDYQKLHDAFFKWQTKPKLTIHGDLYYEGKEFETRLKEKKPGDLSDELRISLGMPVGPNAHKVPPPWLIAMQRYGPPPSYPNLKIPGLNSPIPESCSFGYHAGGWGKPPVDETGKPLYGDVFGTNAAEFQTKTEEEEIDRTPWGELEPSDEESSEEEEEEESDEDKPDETGFITPADSGLITPGGFSSVPAGMETPELIELRKKKIEEAMDGSETPQLFTVLPEKRTATVGGAMMGSTHIYDMSTVMSRKGPAPELQGVEVALAPEELELDPMAMTQKYEEHVREQQAQVEKEDFSDMVAEHAAKQKQKKRKAQPQDSRGGSKKYKEFKF
Difference (log2), untreated vs GFP [2, 4]: 2.239 log2

Difference (log2), PP1 vs untreated [1, 3]: -0.1559 log2
B4: LIMA1 (protein, UniProt Q9UHB6 1-759, looked up)
LIM domain and actin-binding …: MESSPFNRRQWTSLSLRVTAKELSLVNKNKSSAIVEIFSKYQKAAEETNMEKKRSNTENLSQHFRKGTLTVLKKKWENPGLGAESHTDSLRNSSTEIRHRADHPPAEVTSHAASGAKADQEEQIHPRSRLRSPPEALVQGRYPHIKDGEDLKDHSTESKKMENCLGESRHEVEKSEISENTDASGKIEKYNVPLNRLKMMFEKGEPTQTKILRAQSRSASGRKISENSYSLDDLEIGPGQLSSSTFDSEKNESRRNLELPRLSETSIKDRMAKYQAAVSKQSSSTNYTNELKASGGEIKIHKMEQKENVPPGPEVCITHQEGEKISANENSLAVRSTPAEDDSRDSQVKSEVQQPVHPKPLSPDSRASSLSESSPPKAMKKFQAPARETCVECQKTVYPMERLLANQQVFHISCFRCSYCNNKLSLGTYASLHGRIYCKPHFNQLFKSKGNYDEGFGHRPHKDLWASKNENEEILERPAQLANARETPHSPGVEDAPIAKVGVLAASMEAKASSQQEKEDKPAETKKLRIAWPPPTELGSSGSALEEGIKMSKPKWPPEDEISKPEVPEDVDLDLKKLRRSSSLKERSRPFTVAASFQSTSVKSPKTVSPPIRKGWSMSEQSEESVGGRVAERKQVENAKASKKNGNVGKTTWQNKESKGETGKRSKEGHSLEMENENLVENGADSDEDDNSFLKQQSPQEPKSLNWSSFVDNTFAEEFTTQNQKSQDVELWEGEVVKELSVEEQIKRNRYYDEDEDEE
Difference (log2), untreated vs GFP [2, 4]: -0.3717 log2

Difference (log2), PP1 vs untreated [1, 3]: -0.1954 log2
B5: MYO1E (protein, UniProt Q12965 1-1108, looked up)
Unconventional myosin-Ie: MGSKGVYQYHWQSHNVKHSGVDDMVLLSKITENSIVENLKKRYMDDYIFTYIGSVLISVNPFKQMPYFGEKEIEMYQGAAQYENPPHIYALADNMYRNMIIDRENQCVIISGESGAGKTVAAKYIMSYISRVSGGGTKVQHVKDIILQSNPLLEAFGNAKTVRNNNSSRFGKYFEIQFSPGGEPDGGKISNFLLEKSRVVMRNPGERSFHIFYQLIEGASAEQKHSLGITSMDYYYYLSLSGSYKVDDIDDRREFQETLHAMNVIGIFAEEQTLVLQIVAGILHLGNISFKEVGNYAAVESEEFLAFPAYLLGINQDRLKEKLTSRQMDSKWGGKSESIHVTLNVEQACYTRDALAKALHARVFDFLVDSINKAMEKDHEEYNIGVLDIYGFEIFQKNGFEQFCINFVNEKLQQIFIELTLKAEQEEYVQEGIRWTPIEYFNNKIVCDLIENKVNPPGIMSILDDVCATMHAVGEGADQTLLQKLQMQIGSHEHFNSWNQGFIIHHYAGKVSYDMDGFCERNRDVLFMDLIELMQSSELPFIKSLFPENLQADKKGRPTTAGSKIKKQANDLVSTLMKCTPHYIRCIKPNETKKPRDWEESRVKHQVEYLGLKENIRVRRAGYAYRRIFQKFLQRYAILTKATWPSWQGEEKQGVLHLLQSVNMDSDQFQLGRSKVFIKAPESLFLLEEMRERKYDGYARVIQKSWRKFVARKKYVQMREEASDLLLNKKERRRNSINRNFIGDYIGMEEHPELQQFVGKREKIDFADTVTKYDRRFKGVKRDLLLTPKCLYLIGREKVKQGPDKGLVKEVLKRKIEIERILSVSLSTMQDDIFILHEQEYDSLLESVFKTEFLSLLAKRYEEKTQKQLPLKFSNTLELKLKKENWGPWSAGGSRQVQFHQGFGDLAVLKPSNKVLQVSIGPGLPKNSRPTRRNTTQNTGYSSGTQNANYPVRAAPPPPGYHQNGVIRNQYVPYPHAPGSQRSNQKSLYTSMARPPLPRQQSTSSDRVSQTPESLDFLKVPDQGAAGVRRQTTSRPPPAGGRPKPQPKPKPQVPQCKALYAYDAQDTDELSFNANDIIDIIKEDPSGWWTGRLRGKQGLFPNNYVTKI
Difference (log2), untreated vs GFP [2, 4]: 1.374 log2

Difference (log2), PP1 vs untreated [1, 3]: -0.1648 log2
B6: SMC3 (protein, UniProt Q9UQE7 1-1217, looked up)
Structural maintenance of …: MYIKQVIIQGFRSYRDQTIVDPFSSKHNVIVGRNGSGKSNFFYAIQFVLSDEFSHLRPEQRLALLHEGTGPRVISAFVEIIFDNSDNRLPIDKEEVSLRRVIGAKKDQYFLDKKMVTKNDVMNLLESAGFSRSNPYYIVKQGKINQMATAPDSQRLKLLREVAGTRVYDERKEESISLMKETEGKREKINELLKYIEERLHTLEEEKEELAQYQKWDKMRRALEYTIYNQELNETRAKLDELSAKRETSGEKSRQLRDAQQDARDKMEDIERQVRELKTKISAMKEEKEQLSAERQEQIKQRTKLELKAKDLQDELAGNSEQRKRLLKERQKLLEKIEEKQKELAETEPKFNSVKEKEERGIARLAQATQERTDLYAKQGRGSQFTSKEERDKWIKKELKSLDQAINDKKRQIAAIHKDLEDTEANKEKNLEQYNKLDQDLNEVKARVEELDRKYYEVKNKKDELQSERNYLWREENAEQQALAAKREDLEKKQQLLRAATGKAILNGIDSINKVLDHFRRKGINQHVQNGYHGIVMNNFECEPAFYTCVEVTAGNRLFYHIVDSDEVSTKILMEFNKMNLPGEVTFLPLNKLDVRDTAYPETNDAIPMISKLRYNPRFDKAFKHVFGKTLICRSMEVSTQLARAFTMDCITLEGDQVSHRGALTGGYYDTRKSRLELQKDVRKAEEELGELEAKLNENLRRNIERINNEIDQLMNQMQQIETQQRKFKASRDSILSEMKMLKEKRQQSEKTFMPKQRSLQSLEASLHAMESTRESLKAELGTDLLSQLSLEDQKRVDALNDEIRQLQQENRQLLNERIKLEGIITRVETYLNENLRKRLDQVEQELNELRETEGGTVLTATTSELEAINKRVKDTMARSEDLDNSIDKTEAGIKELQKSMERWKNMEKEHMDAINHDTKELEKMTNRQGMLLKKKEECMKKIRELGSLPQEAFEKYQTLSLKQLFRKLEQCNTELKKYSHVNKKALDQFVNFSEQKEKLIKRQEELDRGYKSIMELMNVLELRKYEAIQLTFKQVSKNFSEVFQKLVPGGKATLVMKKGDVEGSQSQDEGEGSGESERGSGSQSSVPSVDQFTGVGIRVSFTGKQGEMREMQQLSGGQKSLVALALIFAIQKCDPAPFYLFDEIDQALDAQHRKAVSDMIMELAVHAQFITTTFRPELLESADKFYGVKFRNKVSHIDVITAEMAKDFVEDDTTHG
Difference (log2), untreated vs GFP [2, 4]: 0.1297 log2
